Experimental data as given in the DeepSol protein solubility set.

assay: soluble on expression in E. coli; label from the status in PepcDB or PDB records

Q: For “MSLRLDKFIAENVGLTRSQATKAIRQSAVKINGEIVKSGSVQISQEDEIYFEDELLTWIEEGQYFMLNKPQGCVCSNDDGDYPTIYQFFDYPLAGKLHSAGRLDVDTTGLVLLTDDGQWSHRITSPKHHCEKTYLVTLADPVEENYSAACAEGILLRGEKEPTKPAKLEILDDYNVNLTISEGRYHQVKRMFAALGNKVVGLHRWKIGDVVLDESLEEGEYRPLTQSEIEKLVEGGSHHHHHH”, which “soluble on expression in E. coli” value is on record?
A: soluble

Q: For “MSLANFVHEGDLPDGVFADAEIIAIDSETMGLRLRRDPLCVVQLSAGDGDAHVVRLSRPDYDCPNLKALLTNPKVLKLFHFGRFDIAMFELHLGVVTAPVYCTKIASKLARTYTDRHGLKDVTRELLGVELSKVQQSSDWGAPSLSVDQVAYAASDVLHLHGLRLKLNAMLEREGRMALAQHAFDYLPHRASLDLAGWEEMDIFAHSEGHHHHHH”, which “soluble on expression in E. coli” value is on record?
A: soluble

Q: With “MSLNEQKAQQLLMFFREQAEKPLSVNELEEALNLEDAQEFKELVQVLNEMEEKGLLVRTRSNRYGVPEKMNLLRGVVQGHAKGFAFVIPEEEGHSDVYVSHVDLESAMNGDRVIVRLHPHSTGTRPEGKVIRILERGVSEVIGTYVDHQTYGLVVADDKRIPNDILIVNPEAQGLVDGHKVIVKITKYPEGRMSAEGEVISILGHKNDPGMDILSIIYKYGIPQAFPEEVLQQAQNIPDEIDAGEIKNRRDLRDEPLVTIDGADAKDLDDAVHVSRLPNGNFKLGVHIADVSYYVKEKSPIDLEAAERGTSVYLVDRVIPMIPHRLSNGICSLNPQVDRLTLSCEMEITRDGQVVNHEIFQSVIRTNERMTYHDVNKILVEKEEELRNRYELLVPMFEDMEELAAILRKKRFGRGAIDFDFKEAKVLVDEEGKPSDVVIRERGVAEKLIEEFMLAANETVAEHFHWLKLPFMYRIHEDPDSEKLGRFLEFITNFGYVVRGTANTVHPRALQKLLEEVRGEPEEQVISTVMLRSMQQAKYDPTSLGHFGLSTEFYTHFTSPIRRYPDLIVHRLIREYLIKGNVDEETQEKWRERLPEIARHCSEMERRAVDAERETDDVKKAQFMEDKIGETFTGIISGVTNFGIFVELENTIEGLVHVSYLTDDYYRYDEKHYAMIGERSGNVFRIGDEIEVRVINVNVEEASIDFEIVGMKPRKQRPDKSRPKVIEGGKRKKKENRGALALDGSKPKKKKKKKAFYENAPSAKRKKGKKRKREGHHHHHH” as the sequence, how does the “soluble on expression in E. coli” value read?
A: soluble

Q: For “MKERMQKTSAQAHDFPQRARTESEWYEGVQTFMWMTEDNIVEVPFDKEHLLEIILSPSNLNKAYKAVVRNNGSGGIDKMSCEQLLSWLKANKDELIISLQSGTYRPNPVRRVEIPKDNGKKRLLGIPTVVDRLVQQAINQVLTLIYERQFSKTSYGFRPQRGCHDALRKAQKIVSEGYIYVVDLDLERFFDTVSHSKLIEILSRTIKDGRVISLIHKYLRSGVINRGMFEMSTEGTPQGGPLSPLLSNIMLNELDKELERRGHPFVRYADDAMIFCKSKRAAKRVRESITLFIEGKLFLKVNHEKTVVSYVKGVKFLGYSFYVKKGDCILLVHSKSKNKMKSKLKELTSRSNGWGYEKRKQKLKDYIRGWIAYFCLAQMKRLCIETDEWLRRRIRMCIWKSWKNAKTRVANLKKCGVSEWQAYQWGNTRLGYWRVSNSPIVTFVMSNDKLRKAGYMEFMDCYLKWCPKLEHHHHHH”, which “soluble on expression in E. coli” value is on record?
A: soluble

Q: For “MGSDKIHHHHHHMSNSQILGERARILADQLLAVPTTVYQQRSLQAALHLFLDTGTKTALHRAPLVSKSAVSRLLNNYDWDTAACWALLQRSQWEALLLAARRKRRACLRLSVDLTSIEKTGKQLPFVRVYNEVHGIHLVVLFAEYRGLKFPVGYRVYRGKGTATPVSLALELLGEVPDAIRKRFRIRVLADSGFEAAVFLDGVRTLGFEFVVGVRATRRTTHPGQVTVADCEHGAWLELQNWPHDTLTLARVERGERTFFSVASELMTGDEVAAEGGKRWNIESFFKEGKHQFSLQQFALRTARGLDRWVLLVFLAFTLTMLHRSPDLSLEEAAGLALTLALPFLRLNVIFARLATDEEFLRQHGYSLKIARCNS”, which “soluble on expression in E. coli” value is on record?
A: not soluble

Q: With “MGSDKIHHHHHHMSIIDSQESTLYQQLAETFATAIHQGTLAPGSRLPSIRRVAGSHQVSVNTVLNAWRILEDRGLIEARPQSGYFVRGRLPSLTESKPHRAQVIVPGSEKLDLIDTVFAAQTHPDYTNISLACPQHTDFYPTEKISRIAASLLRRQPELIGRYALPPGSERLRREVARRAMDLGMTLTREDITITHGCMEALQLALRTVTQPGDCVGLETPTYFYLFPLLASLGLKTVEIPTDPQRGLSLDALELLLSENRLQAIIAMPNAQNPLGCSMTLADKKRLAKLVNDYQVPLIEDGLYSELQFTWPLSPTVKAFDREGWVIYCSSFTKTLAPDFRIGWMASGRFRAQVARLKAVSSMAESALLSETLAQFLESGGYDHHLRTLRRRYAAQMDEARGLIARHFPQGTRATQPQGGFVFWLELPGGVDGVELFHRLLQEKICVTPGELYTLSGRCKHALRLSCCYPFDERYTYALKRAGALACEMSGIGPGNEG” as the sequence, how does the “soluble on expression in E. coli” value read?
A: not soluble

Q: For “SVSTTFRRIVSPCWRPFGIGEDSSPGSDDTNGRLDGLLWYKDSGNHITGEFSMAVVQANNLLEDHSQLESGPISLHESGPEATFVGVYDGHGGPEAARFVNDRLFYNIKRYTSEQRGMSPDVITRGFVATEEEFLGLVQEQWKTKPQIASVGACCLVGIVCNGLLYVANAGDSRVVLGKVANPFKELKAVQLSTEHNASIESVREELRLLHPDDPNIVVLKHKVWRVKGIIQVSRSIGDAYLKRAEFNQEPLLPKFRVPERFEKPIMRAEPTITVHKIHPEDQFLIFASDGLWEHLSNQEAVDIVNSCPRNGVARKLVKAALQEAAKKREMRYSDLEKIERGIRRHFHDDITVIVVFLHATNFATRTPISVKGGGLLSAHNPVL”, which “soluble on expression in E. coli” value is on record?
A: soluble

Q: Which “soluble on expression in E. coli” value does the source give for “MSLILLNTITDQVSVSETQTKSPRLWMPERVLFTPAALGEDWGQQILARVQSLNLPIEELSQNRLKGLRGESERDTYNIAKRTLAVVTAPPSSFKLSPIPPSADWQFHIAEGCPAHCQYCYLAGSLSGPPVIRVFANLPQILENLANYEQQGKTTTFEVSCYTDPLGIEHLTGSLAECIRYFGTRTNAHLRWVSKFDAVDGLLDLPHNGNTRCRMSVNAAPISGKFEGGTASVASRLNALRRLALPQERGGGGYPVGLVIAPIMPIDDWQMHYSRLFDQINEALDFDCNFTFELISHRFTPGSKEVLQAWYPQSKLEMDEAKRSVKRNKFGGTKYVYEKDTMKALRSFFESEISRRFPNAETLYWTEGHHHHHH” here?
A: soluble

Q: For “MGSDKIHHHHHHMELVIRDIRKRFQETEVLRGASYRFYSGKITGVLGRNGAGKTTLFNILYGDLAADNGTICLLKDNHEYPLTDKDIGIVYSENYLPEFLTGYEFVKFYMDLHPSDDLMTIDDYLDFMEIGQTERHRIIKGYSDGMKSKLSLICLMISKPKVILLDEPLTAVDVVSSIAIKRLLLELSEDHIIILSTHIMALAEDLCDIVAVLDKGKLQTLDIDRKHEQFEERLLQVLKGDEYDK”, which “soluble on expression in E. coli” value is on record?
A: not soluble

Q: With “MSLSFLKHVQDCNTHDLSNFVRFVIEGRRVGWVRKALAQRLKAHGRVFDVTRDAVLLSASLRTPQSRTRAVADVVDRLADEGVVPAPRGELYRVNQSWGEPTLMLLDRAVVPTFGVRAYGVHLNGYVGAGADLHLWIGRRSPDKSVAPGKLDNMVAGGQPADLSLRQNLIKECAEEADLPEALARQAIPVGAITYCMESPAGIKPDTLFLYDLALPEDFRPHNTDGEMADFMLWPAAKVVEAVRTTEAFKFNVNLTVIDFAIRHGLIDPDNEGHHHHHH” as the sequence, how does the “soluble on expression in E. coli” value read?
A: not soluble

Q: For “SSNQTPYIGSKISLISKLDIRYEGILYTVDTNDSTIALAKVRSFGTEKRPTANPVAARDDVYEYIIFKASDIKDLIVCDTPKMANIGGGLPYDPAIISVSSRSAPASDGAPAASAGSSRAGTPSRNSPLGQIIQNQRPGRGGYQQNFQANRGYNNYRGGFAGGYNNQRGHNNYGVPRVNHREKLKFESDFDFEKANEKFQEVLVDNLEKLNIEDKAEPEVEEKKDAAFYDKKTSFFDNISCESLEKAEGKTGRPDWKKERETNQETFGHNAVRSLNYRRGFGGRGRGGNRGYGGYNNGYQHQHQHRGGYNGGYRQNNGGYRRGGYAPRDNQGNTAAAAEQ”, which “soluble on expression in E. coli” value is on record?
A: not soluble

Q: Which “soluble on expression in E. coli” value does the source give for “MGSDKIHHHHHHMHTDINALFAALWQDYIQMTPSAAKVHALLGHGKPIINDHIALRTFNIAKVNLDVLAKHFTSLGYVACGDYKFEQKKLVAKHFEHPDSTQPKVFISELLVEEFSPALQATIQGLIAQVDVAATTADNFIYSGRHWSLDSQTYEDLLAESEYAAWVAAFGYRANHFTVSINHLDGFDTLESVNNALKQAGFVLNSSGGEIKGSPEVLLEQSSTMADKIGVEFTNATVEIPSCFYEFALRYPMANGELYTGFVAASADKIFESTNVNKA” here?
A: not soluble

Q: For “MAHHHHHHMPLNAQQLLFHLARRNSAPPWRWFPTATENKLFERLDTSGSPTAQVVYSQFVQARLQGSCSAGTAPIQLDLFLDELTPSDDGDYILRCPLANSHLMKRLVVPAPMRIAMHGLLQEVIDVFQQAGIRYWAAGGTLLGAVRHGCIIPWDDDVDLAISVEDELKLRSAFKYPCAHGSDDNIGDNSGDCNSEYSSESSSNEVEKNDGNNGGNLVLEYVPLFGYKVYSRLLPPPFPSPSLPGVGSSCLRYGYFVDIFIMRESKNRFVLARESAQRTWPDEWWHVDELFPLLQKPFAAVAACASEQHPQTALQLSVGRYPLMHLHRLYGETCMQEALIPRELHGRELSHSLRIPLELL”, which “soluble on expression in E. coli” value is on record?
A: not soluble

Q: For “MTRYALLVRGINVGGKNKVVMAELRQELTNLGLEKVESYINSGNIFFTSIDSKAQLVEKLETFFAVHYPFIQSFSLLSLEDFEAELENLPAWWSRDLARKDFLFYTEGLDVDQVIATVESLELKDEVLYFGKLGIF”, which “soluble on expression in E. coli” value is on record?
A: not soluble

Q: Which “soluble on expression in E. coli” value does the source give for “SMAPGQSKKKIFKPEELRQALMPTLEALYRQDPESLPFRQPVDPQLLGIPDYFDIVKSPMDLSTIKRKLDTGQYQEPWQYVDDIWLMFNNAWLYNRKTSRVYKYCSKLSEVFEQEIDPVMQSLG” here?
A: soluble

Q: With “QEQLVESGGRLVTPGTALTLTCKVSGFSLSGFWLNWVRQAPGKGLEWVGAIYRGSGSEWYASWAKGRFTISDTSTTVTLKLTSPTTEDTATYFCAADTTDNGYFTIWGPGTLVTVSSASTKGPSVFPLAPSAKSTSGGTAALGCLVKDYFPEPVTVSWNSGALTSGVHTFPAVLQSSGLYSLSSVVTVPSSSLGTQTYICNVNHKPSNTKVDKKAEPKSCDKTRGHHHHHH” as the sequence, how does the “soluble on expression in E. coli” value read?
A: soluble

Q: With “SMKQDSRFPNLFILDHPLIQHKLTHMRDKDTSTRTFRELLREITLLMGYEITRNLPITTKRVETPLVEIDAPVIAGKKLAIVPVLRAGVGMSDGLLELIPSARVGHIGVYRADDHRPVEYLVRLPDLEDRIFILCDPMVATGYSAAHAIDVLKRRGVPGERLMFLALVAAPEGVQVFQDAHPDVKLYVASLDSHLDDHAYIVPGLGDAGDRLFGTKN” as the sequence, how does the “soluble on expression in E. coli” value read?
A: soluble

Q: With “MSLEEYPQMIVFEDVPYGFWAYDAIMDLAYHKIILGYGNGKYGVGDLTTREQVAGIIYRTLEMKEEGSVANPYKDISDSTTTFKKEILALTKRGVFTGDGQGNFRPKAPVSRAEMAVILKRAFTFETKQKHTFKDIPKGHWAEDAISALQSNNVVRGTGNGMYELNRPVPREQYAQFINNAIINYHLKEDWREGHHHHHH” as the sequence, how does the “soluble on expression in E. coli” value read?
A: not soluble

Q: Which “soluble on expression in E. coli” value does the source give for “MATPEGQAEEKAVKLAAEEINAQGGILGYKVEVVVGDTKLDSNTATSEFRRLATVENADVIIGGFSSGVMTAMMETMAETKTLFLSDASSPAHAQKVEQNYEKYKYWFRVSQNNGSTFALDLADMVKFLRDSGYEVKKVYIIRDEHVWTDPVMAALKPLLEEMGVEIVKDVKIPRGYSEYEQLILEAESLNADLIMPILAISGTGDVLAKQWATLKPNLLLAGHDLAPIDPEFYEKTNGMANYEIFLADGGALVTAPPTEKCREFVEAYKAKYGHYPESHQAYGAYDAVYLYKMVVEMAAKNGEKDPFNPDVLVKYLEKFDASNPVKLTRTIAFYPNHDLMWGDDYVRNWISQWQDGKQYIIYPPSVANGELKLPPWIEK” here?
A: not soluble

Q: For “RAKAFIDAANQYSINELYLISHALLETGNGTSALANGLTYNGKTVYNMYGIGAYDSNPNYYGAKYAYEQGWFTPEAAIIGGAKFIGSSYIHNTAYNQDTLYKMRWSATATHQYATDIGWAYKQVNRMYSLYSLLDG”, which “soluble on expression in E. coli” value is on record?
A: not soluble
